{
  "source": "patent US20100317830A1",
  "about": "“BACE455, AN ALTERNATIVE SPLICE VARIANT OF THE HUMAN BETA-SECRETASE” (EXONHIT THERAPEUTICS SA, priority 2003, published 2010)",
  "molecules": {"B1": {"name": "BACE501: native full-length human BACE isoform (variant a), NM_012104 (protein, UniProt P56817 1-501, looked up)", "chain": "MAQALPWLLLWMGAGVLPAHGTQHGIRLPLRSGLGGAPLGLRLPRETDEEPEEPGRRGSFVEMVDNLRGKSGQGYYVEMTVGSPPQTLNILVDTGSSNFAVGAAPHPFLHRYYQRQLSSTYRDLRKGVYVPYTQGKWEGELGTDLVSIPHGPNVTVRANIAAITESDKFFINGSNWEGILGLAYAEIARPDDSLEPFFDSLVKQTHVPNLFSLQLCGAGFPLNQSEVLASVGGSMIIGGIDHSLYTGSLWYTPIRREWYYEVIIVRVEINGQDLKMDCKEYNYDKSIVDSGTTNLRLPKKVFEAAVKSIKAASSTEKFPDGFWLGEQLVCWQAGTTPWNIFPVISLYLMGEVTNQSFRITILPQQYLRPVEDVATSQDDCYKFAISQSSTGTVMGAVIMEGFYVVFDRARKRIGFAVSACHVHDEFRTAAVEGPFVTLDMEDCGYNIPQTDESTLMTIAYVMAAICALFMLPLCLMVCQWRCLRCLRQQHDDFADDISLLK", "modifications": "full-length", "notes": "native full-length human BACE isoform (variant a), NM_012104"}, "B2": {"name": "BACE455: new isoform of human beta-secretase (BACE) lacking exon 4, 455 amino acid residues, SEQ ID NO: 2 (protein, listed as Homo sapiens)", "chain": "MAQALPWLLLWMGAGVLPAHGTQHGIRLPLRSGLGGAPLGLRLPRETDEEPEEPGRRGSFVEMVDNLRGKSGQGYYVEMTVGSPPQTLNILVDTGSSNFAVGAAPHPFLHRYYQRQLSSTYRDLRKGVYVPYTQGKWEGELGTDLVSIPHGPNVTVRANIAAITESDKFFINGSNWEGILGLAYAEIARIIGGIDHSLYTGSLWYTPIRREWYYEVIIVRVEINGQDLKMDCKEYNYDKSIVDSGTTNLRLPKKVFEAAVKSIKAASSTEKFPDGFWLGEQLVCWQAGTTPWNIFPVISLYLMGEVTNQSFRITILPQQYLRPVEDVATSQDDCYKFAISQSSTGTVMGAVIMEGFYVVFDRARKRIGFAVSACHVHDEFRTAAVEGPFVTLDMEDCGYNIPQTDESTLMTIAYVMAAICALFMLPLCLMVCQWRCLRCLRQQHDDFADDISLLK"}},
  "key": {"[1]": {"test_system": "endogenously expressed APP in SH-SY5Y cells", "assay": "Aβ1-40 double antibody sandwich ELISA on conditioned medium of transfected SH-SY5Y cells", "format": "cell-based, human", "settings": "SH-SY5Y cells transfected with BACE construct; control = empty vector, set as 100%", "description": "Cells were harvested 3 days after plating and processed for Western Blotting experiments as described above.\nCell culture supernatants harvested 72 hours after plating were analyzed in a standard double antibody isoform-specific Aβ1-40 ELISA (BioSource International) as follows. […] The detecting antibody is specific for Abeta 1-40 and the conjugated secondary antibody is an anti-rabbit IgG conjugated to horseradish peroxydase. Synthetic human Aβ1-40 standard peptides are serially diluted in the supplied sample diluent for the generation of standard curves.\nHuman Abeta 1-40 standards were added after washing the plate, as well as 100 μl/well of sample, e.g., conditioned medium of transfected cells. The plate was incubated at 4[deg.] C. overnight. The next day, after washing the plate four times, 100 μl/well rabbit detection antibody was added and incubated for 2 hours on an orbital plate shaker at 20 degree C. […] 100 μl/well stop solution was added and absorbance of each well was read at 450 nm within two hours, with a solution of 100 μl each of chromogen and stop solution as the blank. […] The samples with absorbance values falling within the standard curve were extrapolated (by comparison to the values obtained for the A-β40 and A-β42 standard peptides analyzed on the same plate) from the standard curves and expressed in pg/ml culture medium."}, "[2]": {"test_system": "endogenously expressed APP isoforms in SH-SY5Y cells", "assay": "Western blot of C99 fragment generation in transfected SH-SY5Y cells", "format": "cell-based, human", "description": "SH-SY5Y cells for transfection were grown to 80% confluence in Dulbecco's modified Eagle's medium (DMEM) with 10% fetal bovine serum. Transfections were performed using LipofectAmine Plus (Gibco-BRL) with […] per 10*10<6>cells. Three days posttransfection, cells were passaged into medium containing G418 at a concentration of 400 μg/ml. After twenty days growth in selective medium, individual clones were selected and plated into each well of one 96 well plate containing growth medium plus G418. Clones were expanded from the 96 well plate to a 24 well plate and then to a 6 well plate. Clones which had lost initial neuronal-like morphology were not amplified. BACE455 or BACE501 expression in selected clones was assayed by Western Blotting and immunohistochemical analysis using Cterminal-specific antibody.\nCells were harvested 3 days after plating. Cells were washed twice with PBS and lysed in 1 ml CellLytic solution (Sigma) plus protease inhibitors cocktail (Roche Diagnostics) for 15 min. […] Following electrotransfer of the separated polypeptides to PVDF membranes, APP and C99 proteolytic fragment were detected with C-terminal-specific rabbit anti-APP antibody (Serotec, UK) at 1/500 in PBS-Tween 20 0.1%, and the antibody-antigen complexes were visualized using alkaline phosphatase conjugated goat anti-rabbit antibodies (1/5000). […]"}},
  "data": [
    {"molecule": "B1", "values": [
      {"measurement": "Aβ release (% of control)", "setting": "[1]", "value": "193.15 ± 2.73 % of control"}
    ]},
    {"molecule": "B2", "values": [
      {"measurement": "C99 production", "setting": "[2]; SH-SY5Y cells transformed with the BACE455 construct vs empty vector", "value": "strongly increased"},
      {"measurement": "APP levels", "setting": "[2]; overexpression of BACE455 in SH-SY5Y cells", "value": "no influence"},
      {"measurement": "Aβ release (% of control)", "setting": "[1]", "value": "199.95+18 % of control"}
    ]}
  ]
}
